{
  "source": "paper PMC8191314",
  "about": "(The Journal of Biological Chemistry, 2021)",
  "proteins": {"B1": {"name": "MRCKβ in extracts from HeLa cells (enzyme, UniProt Q9Y5S2 1-1711, looked up)", "chain": "MSAKVRLKKLEQLLLDGPWRNESALSVETLLDVLVCLYTECSHSALRRDKYVAEFLEWAKPFTQLVKEMQLHREDFEIIKVIGRGAFGEVAVVKMKNTERIYAMKILNKWEMLKRAETACFREERDVLVNGDCQWITALHYAFQDENHLYLVMDYYVGGDLLTLLSKFEDKLPEDMARFYIGEMVLAIDSIHQLHYVHRDIKPDNVLLDVNGHIRLADFGSCLKMNDDGTVQSSVAVGTPDYISPEILQAMEDGMGKYGPECDWWSLGVCMYEMLYGETPFYAESLVETYGKIMNHEERFQFPSHVTDVSEEAKDLIQRLICSRERRLGQNGIEDFKKHAFFEGLNWENIRNLEAPYIPDVSSPSDTSNFDVDDDVLRNTEILPPGSHTGFSGLHLPFIGFTFTTESCFSDRGSLKSIMQSNTLTKDEDVQRDLEHSLQMEAYERRIRRLEQEKLELSRKLQESTQTVQSLHGSSRALSNSNRDKEIKKLNEEIERLKNKIADSNRLERQLEDTVALRQEREDSTQRLRGLEKQHRVVRQEKEELHKQLVEASERLKSQAKELKDAHQQRKLALQEFSELNERMAELRAQKQKVSRQLRDKEEEMEVATQKVDAMRQEMRRAEKLRKELEAQLDDAVAEASKERKLREHSENFCKQMESELEALKVKQGGRGAGATLEHQQEISKIKSELEKKVLFYEEELVRREASHVLEVKNVKKEVHDSESHQLALQKEILMLKDKLEKSKRERHNEMEEAVGTIKDKYERERAMLFDENKKLTAENEKLCSFVDKLTAQNRQLEDELQDLAAKKESVAHWEAQIAEIIQWVSDEKDARGYLQALASKMTEELEALRSSSLGSRTLDPLWKVRRSQKLDMSARLELQSALEAEIRAKQLVQEELRKVKDANLTLESKLKDSEAKNRELLEEMEILKKKMEEKFRADTGLKLPDFQDSIFEYFNTAPLAHDLTFRTSSASEQETQAPKPEASPSMSVAASEQQEDMARPPQRPSAVPLPTTQALALAGPKPKAHQFSIKSFSSPTQCSHCTSLMVGLIRQGYACEVCSFACHVSCKDGAPQVCPIPPEQSKRPLGVDVQRGIGTAYKGHVKVPKPTGVKKGWQRAYAVVCDCKLFLYDLPEGKSTQPGVIASQVLDLRDDEFSVSSVLASDVIHATRRDIPCIFRVTASLLGAPSKTSSLLILTENENEKRKWVGILEGLQSILHKNRLRNQVVHVPLEAYDSSLPLIKAILTAAIVDADRIAVGLEEGLYVIEVTRDVIVRAADCKKVHQIELAPREKIVILLCGRNHHVHLYPWSSLDGAEGSFDIKLPETKGCQLMATATLKRNSGTCLFVAVKRLILCYEIQRTKPFHRKFNEIVAPGSVQCLAVLRDRLCVGYPSGFCLLSIQGDGQPLNLVNPNDPSLAFLSQQSFDALCAVELESEEYLLCFSHMGLYVDPQGRRARAQELMWPAAPVACSCSPTHVTVYSEYGVDVFDVRTMEWVQTIGLRRIRPLNSEGTLNLLNCEPPRLIYFKSKFSGAVLNVPDTSDNSKKQMLRTRSKRRFVFKVPEEERLQQRREMLRDPELRSKMISNPTNFNHVAHMGPGDGMQVLMDLPLSAVPPSQEERPGPAPTNLARQPPSRNKPYISWPSSGGSEPSVTVPLRSMSDPDQDFDKEPDSDSTKHSTPSNSSNPSGPPSPNSPHRSQLPLEGLEQPACDT"}},
  "molecular_target": "the molecule itself",
  "experiment": "cross-linking",
  "data": [
    {"protein": "B1", "values": [
      {"measurement": "stoichiometry N", "result": 2}
    ]}
  ]
}
